Measurements: paper doi:10.1101/2024.02.06.579161

Biological target: T1, S100A9, P06702
T1 chain: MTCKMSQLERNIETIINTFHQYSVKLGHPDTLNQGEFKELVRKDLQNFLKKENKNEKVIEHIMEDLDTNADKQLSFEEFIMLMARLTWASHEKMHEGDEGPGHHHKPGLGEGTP
Test: SDS-PAGE
Conditions: remark: other sources report otherwise

B1: S100A9, P06702 1-114 (natural protein)
chain: MTCKMSQLERNIETIINTFHQYSVKLGHPDTLNQGEFKELVRKDLQNFLKKENKNEKVIEHIMEDLDTNADKQLSFEEFIMLMARLTWASHEKMHEGDEGPGHHHKPGLGEGTP
Q: How did the stoichiometry N turn out when B1 was run?
A: 2
